# Experimental data as given in article PMC11632364, “Interactions that define the arrangement of sugar-binding sites in BDCA-2 and dectin-2 dimers” (Glycobiology, 2024).
# Where a chain is given by its changes, count along the chain named.
# B1: dectin-2 extracellular domain starting at Val40 (CRD plus full neck) (domain or fragment, human, UniProt Q6EIG7 40-209, looked up)
# chain: VVTYHFTYGETGKRLSELHSYHSSLTCFSEGTKVPAWGCCPASWKSFGSSCYFISSEEKVWSKSEQNCVEMGAHLVVFNTEAEQNFIVQQLNESFSYFLGLSDPQGNNNWQWIDKTPYEKNVRFWHLGEPNHSAEQCASIVFWKPTGWGWNDVICETRRNSICEMNKIYL
# notes: human dectin-2 (CLEC-6A) extracellular region starting at Val40; also called full extracellular domain of dectin-2; CRD plus neck fragment starting at residue Val40; source: E. coli BL21(DE3), inclusion bodies, renatured, purified on mannose-Sepharose
# B2: blood dendritic cell antigen 2 (BDCA-2), full-length, wild type (receptor, human, UniProt Q8WTT0 1-213, looked up)
# chain: MVPEEEPQDREKGLWWFQLKVWSMAVVSILLLSVCFTVSSVVPHNFMYSKTVKRLSKLREYQQYHPSLTCVMEGKDIEDWSCCPTPWTSFQSSCYFISTGMQSWTKSQKNCSVMGADLVVINTREEQDFIIQNLKRNSSYFLGLSDPGGRRHWQWVDQTPYNENVTFWHSGEPNNLDERCAIINFRSSEEWGWNDIHCHVPQKSICKMKKIYI
# modifications: N-linked glycans (high mannose and complex)
# notes: human BDCA-2, full-length protein expressed in HEK cells; Co-expressed with human FcRγ; no tag is mentioned; also called wild-type BDCA-2; source: HEK 293 cells, stably co-transfected with FcRγ; in lysate and purified from lysate on a desialylated egg-glycopeptide column
# B3: BDCA-2 Ser49Cys variant, full-length (receptor, human, UniProt Q8WTT0 1-213, looked up)
# chain: B2 chain with S49C
# modifications: interchain disulfide bond at Cys49; N-linked glycans (high mannose and complex)
# notes: human BDCA-2, full-length construct with the naturally occurring change Ser49Cys (SNP found in a single individual); Co-expressed with human FcRγ; also called Ser49Cys form of BDCA-2; source: HEK 293 cells, stably co-transfected with FcRγ; in lysate and purified from lysate on a desialylated egg-glycopeptide column
# What was measured:
# [1] = biological target: dectin-2 extracellular fragment beginning with His44 fused to an N-terminal 3-heptad coiled-coil dimerization domain (human) (UniProt Q6EIG7); assay: cross-linking; dectin-2 extracellular domain with dimerization domain in HEPES pH 7.8 buffers, bis(sulfosuccinimidyl) suberate or disuccinimidyl tartrate, serial dilutions, room temperature 30 min, reducing 17.5% SDS-PAGE, Coomassie blue
# [2] = biological target: dectin-2 extracellular fragment beginning with His44 fused to an N-terminal 3-heptad coiled-coil dimerization domain (human) (UniProt Q6EIG7); assay: SEC; 1 x 30 cm Superdex S75, 10 mM Tris-Cl pH 7.8, 100 mM NaCl, 2.5 mM EDTA, 0.5 mL/min, room temperature; some fragments analysed at serial dilutions
# [3] = biological target: wild type BDCA-2 extracellular domain (from His44) fused to an N-terminal 3-heptad coiled-coil dimerization domain (human) (UniProt Q8WTT0); assay: as above
# [4] = biological target: BDCA-2 Ser49Cys variant extracellular domain fused to an N-terminal 3-heptad coiled-coil dimerization domain (human) (UniProt Q8WTT0); assay: non-reducing versus reducing SDS-PAGE (disulfide-linked dimer); bacterially expressed extracellular domain fusions eluted from a 5-mL desialylated egg glycopeptide column with EDTA, gels with or without 2-mercaptoethanol, Coomassie blue
# [5] = biological target: BDCA-2 Ser49Cys variant extracellular domain fused to an N-terminal 3-heptad coiled-coil dimerization domain (human) (UniProt Q8WTT0); assay: SEC; 1 x 30 cm Superdex S75, 10 mM Tris-Cl pH 7.8, 100 mM NaCl, 2.5 mM EDTA, 0.5 mL/min, room temperature; some fragments analysed at serial dilutions
# [6] = biological target: the molecule itself; assay: as above
# [7] = biological target: the molecule itself; assay: cross-linking; BDCA-2 purified from HEK cells in HEPES pH 7.8 buffers, pooled fractions reacted with various concentrations of bifunctional reagent for 30 min, reducing SDS-PAGE, western blot
# [8] = biological target: the molecule itself; assay: non-reducing versus reducing SDS-PAGE (disulfide-linked dimer); BDCA-2 purified from HEK cells by affinity chromatography (lysis with N-ethylmaleimide), gels with or without 2-mercaptoethanol, western blot with anti-BDCA-2 antiserum
molecule,measurement,setting,value
dectin-2 extracellular fragment beginning with His44 fused to an N-terminal 3-heptad coiled-coil dimerization domain (from UniProt Q6EIG7 44-209),stoichiometry N,[1],2
same,stoichiometry N,[2],2
wild type BDCA-2 extracellular domain (from His44) fused to an N-terminal 3-heptad coiled-coil dimerization domain (from UniProt Q8WTT0 44-213),stoichiometry N,[3],2
BDCA-2 Ser49Cys variant extracellular domain fused to an N-terminal 3-heptad coiled-coil dimerization domain (from UniProt Q8WTT0 44-213),stoichiometry N,[4],2
same,stoichiometry N,[5],2
B1,stoichiometry N,[6],2
B2,stoichiometry N,[7],2
B3,stoichiometry N,[8],2
